Laboratory results as given in PMC4660058.

Legend:
[1] = biological target: CP-capped actin filament barbed end (BC) (rabbit | not stated) (UniProt P68135); experiment: microfluidics-assisted single-filament fluorescence microscopy (kinetics of elongation changes); set-up #1: formin-bound barbed ends (BF) exposed to CP + PA (BF+C→BFC), then PA alone (constants 'from BFC'); unlabelled formin; F-buffer pH 7.8, 50 mM KCl, room temperature
[2] = biological target: CP-capped actin filament barbed end (BC) (rabbit | not stated) (UniProt P68135); experiment: microfluidics-assisted single-filament fluorescence microscopy (kinetics of elongation changes); set-up #1: CP-capped barbed ends (BC) exposed to formin without PA for T_(expo) (BC+F→BCF), then PA alone (constants 'from BCF'); k′+F from a fit, not measured directly; F-buffer pH 7.8, 50 mM KCl, room temperature
[3] = biological target: actin filament free barbed end (B) (rabbit) (UniProt P68135); experiment: microfluidics-assisted single-filament fluorescence microscopy (kinetics of elongation changes); set-up #1: filaments from surface-anchored spectrin–actin seeds, free barbed ends exposed to flows of CP or formin with profilin-actin (1 μM actin, 4 μM profilin); off-rates in PA alone; F-buffer pH 7.8, 50 mM KCl, room temperature; KD from the rate constants
[4] = biological target: CP-capped actin filament barbed end (BC) (rabbit | not stated) (UniProt P68135); experiment: microfluidics-assisted single-filament fluorescence microscopy (kinetics of elongation changes); set-up #2: biotin-SNAP-mDia1 anchored on neutravidin coverslip, insertional barbed-end assembly; exposed to CP + unlabelled PA, then PA alone; detachment = BFC→BC+F, resumed growth = BFC→BF+C; F-buffer pH 7.8, 50 mM KCl, room temperature

Row | Kd [1] [nM] | koff [1] [s⁻¹] | koff [2] [s⁻¹] | kon [2] [M⁻¹ s⁻¹] | kon [3] [M⁻¹ s⁻¹] | Kd [4] [nM] | Substance
1 | 3 to 4 | 0.0042 | 0.0062 | 1.6e+06 |  |  | FH1–FH2–DAD domain of human formin mDia1 (unlabelled) (from UniProt O60610 583-1272) (domain or fragment)
2 |  |  | 0.0094 | 115000 | 1.54e+06 |  | GST–FH1(8P)–FH2–C of formin FMNL2 (from UniProt Q96PY5-3 1-1092) (domain or fragment)
3 |  |  |  |  |  | 4 | biotinylated SNAP-mDia1(FH1–FH2–DAD)-His (from UniProt O60610 1-1272) (domain or fragment)
